Legend:
[1] = target: T1, Human CTLA-4/CD152 Protein (His Tag), Biotinylated (human, UniProt P16410 36-161, biotinylated (site not stated)); experiment: multi-cycle kinetics on OCTET, antibody captured on Protein A, CTLA-4 diluted 2-fold from 33 nM over 7 points
T1 construct: Bought recombinant protein; also called 人CTLA-4蛋白; 抗原; not shown: His tag
T1 sequence (looked up): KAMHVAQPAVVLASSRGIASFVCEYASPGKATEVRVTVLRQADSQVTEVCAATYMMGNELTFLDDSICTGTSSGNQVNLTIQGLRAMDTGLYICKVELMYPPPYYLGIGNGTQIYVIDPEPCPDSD

[2] = target: 小鼠CTLA4/CD152蛋白(His标签) (mouse) (UniProt P09793); experiment: ELISA, mouse CTLA-4 coated, anti-human Fc HRP detection
UniProt P09793, sequence (P09793 36-161 limits assumed): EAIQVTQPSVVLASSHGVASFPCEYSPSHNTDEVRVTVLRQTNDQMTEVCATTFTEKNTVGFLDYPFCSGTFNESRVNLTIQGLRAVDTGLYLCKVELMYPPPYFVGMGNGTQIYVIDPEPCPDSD

Kd [1]: 1 pM | antibody concentration at which binding is still not saturated [2]: > 8 ng/µL
B1: IgG1-6E2-CTLA-4 (antibody, V domains shown)
VH: QVQLVQSGAEVKKPGSSVKVSCKASGGTFSSYGISWVRQAPGQGLEWMGGIIPIFETSESAQKFQGRVTFTADKSSSTGYMELSSLRSEDTAIYYCARDPLHRSSSGTYYHYFMDVWGQGTMVTVSS
VL: QAVLTQPSSLSASPGASVSLTCTLRSGINVGAYRIYWYQQKPGSPPQFLLRYKSDSDKEQGRGVPSRFSGSKDASANAGILLISGLQSEDEADYYCMIWHNNAVFFGGGTKLTVLG
notes: also called 抗CTLA-4全人源单克隆抗体

From patent publication CN108003238A (VELOX PHARMACEUTICALS INC, dated 2018)
